The values that follow come from CN105622755A (1ST AFFILIATED HOSPITAL OF 3RD MILITARY MEDICAL UNIV PLA, dated 2016).

One test concerns the target T1, 重组表达的PSMA胞外区蛋白 (UniProt Q04609 44-750, limits assumed).
T1 construct: extracellular domain; also called 前列腺特异性膜抗原膜外区; PSMA抗原; not shown: His tag (purified with HisTrap FF Crude, detected with anti-His antibody)
As to the kind of experiment: indirect phage-ELISA, PSMA extracellular region coated at 5 μg/mL, HRP-anti-M13 detection. On the technique in general: In an ELISA, binding on a coated surface is turned into a signal by an enzyme label.

For test [1], the target named is T2, 前列腺特异性膜抗原 (PSMA) on LNCaP cells (UniProt Q04609 1-750, limits assumed).
T2 construct: whole, on cells; Endogenous PSMA on fixed LNCaP cells; also called prostate specific membrane antigen; LNCaP细胞(表达PSMA)
Description: cell ELISA (OD450) and immunofluorescence on fixed LNCaP cells (PSMA+) against MKN45 cells (PSMA-), anti-M13 detection.

T2 sequence (Q04609 whole entry): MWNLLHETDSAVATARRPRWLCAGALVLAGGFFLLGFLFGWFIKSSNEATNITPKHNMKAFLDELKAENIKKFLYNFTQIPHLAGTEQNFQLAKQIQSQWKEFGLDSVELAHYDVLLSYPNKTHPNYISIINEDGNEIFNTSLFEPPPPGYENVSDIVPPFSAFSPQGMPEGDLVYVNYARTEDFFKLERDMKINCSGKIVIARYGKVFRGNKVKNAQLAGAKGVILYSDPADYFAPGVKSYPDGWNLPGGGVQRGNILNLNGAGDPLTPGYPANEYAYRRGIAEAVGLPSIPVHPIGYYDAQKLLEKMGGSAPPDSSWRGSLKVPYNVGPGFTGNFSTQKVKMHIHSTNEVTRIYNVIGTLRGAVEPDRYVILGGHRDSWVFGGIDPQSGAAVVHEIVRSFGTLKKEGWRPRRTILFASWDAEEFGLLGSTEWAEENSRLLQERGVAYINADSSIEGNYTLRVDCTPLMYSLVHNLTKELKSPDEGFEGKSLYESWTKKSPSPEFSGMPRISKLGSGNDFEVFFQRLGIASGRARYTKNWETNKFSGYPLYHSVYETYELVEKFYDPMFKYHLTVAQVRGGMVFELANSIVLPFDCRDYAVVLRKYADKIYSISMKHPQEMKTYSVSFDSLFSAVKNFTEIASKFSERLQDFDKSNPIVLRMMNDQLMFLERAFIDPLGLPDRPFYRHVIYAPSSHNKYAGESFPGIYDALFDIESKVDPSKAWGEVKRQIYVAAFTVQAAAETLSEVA
T1 sequence (Q04609 44-750 limits assumed): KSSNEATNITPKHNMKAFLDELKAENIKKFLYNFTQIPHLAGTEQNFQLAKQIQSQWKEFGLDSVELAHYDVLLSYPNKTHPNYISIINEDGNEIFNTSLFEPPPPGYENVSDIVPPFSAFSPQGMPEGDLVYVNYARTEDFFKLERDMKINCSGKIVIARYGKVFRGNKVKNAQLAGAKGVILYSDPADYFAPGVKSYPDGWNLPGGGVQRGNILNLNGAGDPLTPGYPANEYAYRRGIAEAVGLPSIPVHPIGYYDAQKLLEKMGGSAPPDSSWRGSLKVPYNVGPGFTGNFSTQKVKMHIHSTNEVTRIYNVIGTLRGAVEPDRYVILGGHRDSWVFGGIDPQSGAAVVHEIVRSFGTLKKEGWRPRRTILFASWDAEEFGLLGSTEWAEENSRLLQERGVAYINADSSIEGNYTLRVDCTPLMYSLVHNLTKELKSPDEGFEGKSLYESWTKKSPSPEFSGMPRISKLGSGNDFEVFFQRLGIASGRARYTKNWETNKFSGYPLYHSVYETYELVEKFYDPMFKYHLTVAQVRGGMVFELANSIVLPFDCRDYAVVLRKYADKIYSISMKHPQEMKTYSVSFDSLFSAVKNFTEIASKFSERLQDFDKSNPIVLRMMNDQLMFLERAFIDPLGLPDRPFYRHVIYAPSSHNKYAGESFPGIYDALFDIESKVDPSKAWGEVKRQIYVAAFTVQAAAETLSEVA

B1: 抗前列腺特异性膜抗原单域重链抗体噬菌体阳性克隆 (VHH)
VHH: QVQLVESGGGLVQAGDSLRLSCAASRRTFSFMAWYRQAPGKQRELVAAITSGGRNTNYADSVKGRFTISRDNAKNTMYLQMNSLKPEDTAVYYCNAAARWNNYWGQGTPVTVSS
notes: The phage coat protein fusion and any linker are not described; Selected from a naive camelid VHH phage display library; also called 针对前列腺特异性膜抗原的单域重链抗体阳性克隆; 展示本发明所述纳米抗体的噬菌体克隆
Take B1: the binding result (in the test with 重组表达的PSMA胞外区蛋白; in test [1]) was “binds” each time.
